Measurements taken from patent US20260022175A1 (Chugai, published 2026).

Legend:
[1] = molecular target: T1, human FcγRIIb extracellular domain with C-terminal His-tag (human, UniProt P31994 43-217); assay: SPR; binding amount divided by that of 04H1637-G1m/04L1610-lam1
T1 construct: extracellular domain; also called hFcγR IIb
T1 sequence (looked up): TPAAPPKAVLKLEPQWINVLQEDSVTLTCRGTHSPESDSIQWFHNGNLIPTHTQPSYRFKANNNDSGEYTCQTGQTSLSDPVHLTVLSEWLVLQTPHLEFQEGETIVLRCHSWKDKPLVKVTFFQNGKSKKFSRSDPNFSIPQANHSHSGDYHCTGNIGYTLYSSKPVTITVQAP

[2] = molecular target: T1, human FcγRIIb extracellular domain with …; assay: SPR; FcγRIIb at 1000 nM, bound amount per unit captured Ab
[3] = molecular target: T2, human FcγRIIIa V allotype extracellular domain with C-terminal His-tag (human, UniProt P08637 17-208); assay: SPR Biacore T200, Ab captured via Fab-lambda, pH 7.4, 25C;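 further: antibodies captured on a streptavidin chip carrying biotinylated anti-Fab-lambda, with each FcγR injected as analyte in phosphate buffer. KD fitted by 1:1 Langmuir or steady-state model depending on receptor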
T2 construct: extracellular domain; also called hFcγR IIIa V
T2 sequence (P08637 17-208 F176V): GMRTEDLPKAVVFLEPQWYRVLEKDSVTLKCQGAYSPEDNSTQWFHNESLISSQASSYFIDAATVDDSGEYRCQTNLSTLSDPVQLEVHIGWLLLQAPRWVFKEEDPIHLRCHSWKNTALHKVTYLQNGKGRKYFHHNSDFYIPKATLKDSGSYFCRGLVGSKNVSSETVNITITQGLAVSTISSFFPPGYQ

[4] = molecular target: T3, human FcγRIa extracellular domain with C-terminal His-tag (human, UniProt P12314 16-292); assay: as above
T3 construct: extracellular domain; also called hFcγR Ia; hFcγRIa
T3 sequence (P12314 16-292): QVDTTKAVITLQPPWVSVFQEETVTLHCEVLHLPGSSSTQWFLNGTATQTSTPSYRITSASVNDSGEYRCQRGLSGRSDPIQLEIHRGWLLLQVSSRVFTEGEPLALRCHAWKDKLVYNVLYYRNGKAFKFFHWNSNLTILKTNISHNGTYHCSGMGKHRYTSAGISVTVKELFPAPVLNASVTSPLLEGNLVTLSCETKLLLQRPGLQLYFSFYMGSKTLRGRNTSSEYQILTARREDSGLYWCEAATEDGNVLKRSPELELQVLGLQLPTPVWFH

[5] = molecular target: T4, human FcγRIIa H allotype extracellular domain with C-terminal His-tag (human, UniProt P12318 34-217); assay: as above
T4 construct: extracellular domain; also called hFcγR IIa H
T4 sequence (looked up): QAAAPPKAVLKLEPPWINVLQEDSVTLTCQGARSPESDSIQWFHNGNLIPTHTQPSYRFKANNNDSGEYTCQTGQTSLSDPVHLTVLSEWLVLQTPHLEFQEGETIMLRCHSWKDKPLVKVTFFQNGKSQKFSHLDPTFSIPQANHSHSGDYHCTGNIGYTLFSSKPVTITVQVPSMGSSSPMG

[6] = molecular target: T5, human FcγRIIIa F allotype extracellular domain with C-terminal His-tag (human, UniProt P08637 17-208); assay: as above
T5 construct: extracellular domain; also called hFcγR IIIa F
T5 sequence (P08637 17-208): as the sequence (P08637 17-208 F176V) above, with V160F counted along it

[7] = molecular target: T6, human FcγRIIa R allotype extracellular domain with C-terminal His-tag (human, UniProt P12318 34-217); assay: as above
T6 construct: extracellular domain; also called hFcγR IIa R
T6 sequence (looked up): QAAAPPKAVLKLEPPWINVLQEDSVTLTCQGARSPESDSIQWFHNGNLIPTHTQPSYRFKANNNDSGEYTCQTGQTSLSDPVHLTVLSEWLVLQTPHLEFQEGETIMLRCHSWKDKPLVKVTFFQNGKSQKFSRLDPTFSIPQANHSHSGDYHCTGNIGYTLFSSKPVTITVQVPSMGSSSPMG

[8] = molecular target: T2, human FcγRIIIa V allotype extracellular …; assay: SPR; KD of 04H1637-G1m/04L1610-lam1 divided by KD of variant;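 further: biacore T200 SPR at 25 °C, antibodies captured on anti-Fab-lambda SA chip with receptor as analyte, running buffer pH 7.4 for FcγRs and pH 6.0 for FcRn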
[9] = molecular target: T3, human FcγRIa extracellular domain with …; assay: as above
[10] = molecular target: T4, human FcγRIIa H allotype extracellular …; assay: as above
[11] = molecular target: T5, human FcγRIIIa F allotype extracellular …; assay: as above
[12] = molecular target: T6, human FcγRIIa R allotype extracellular …; assay: as above
[13] = molecular target: T7, human FcγRIIb extracellular domain (human, UniProt P31994 43-217); assay: SPR Biacore 8K+, antibody captured, FcγR as analyte, steady state affinity model
T7 construct: extracellular domain; also called hFcγR IIb
T7 sequence (looked up): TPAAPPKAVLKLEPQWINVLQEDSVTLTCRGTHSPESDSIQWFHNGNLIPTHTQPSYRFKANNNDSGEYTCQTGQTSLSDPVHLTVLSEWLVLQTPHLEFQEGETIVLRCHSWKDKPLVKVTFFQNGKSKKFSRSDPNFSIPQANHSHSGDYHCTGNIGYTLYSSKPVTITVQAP
Protocol: (§1) The interaction between the produced antibodies and human FcγRs was analyzed using Biacore 8K+ by the method below. For the running buffer, 50 mM Na-Phosphate, 150 mM NaCl, and 0.05% Tween20 (pH 7.4) was used, and measurement was performed at 25° C. The sensor chip used was a Series S SA chip (GE Healthcare) onto which CaptureSelect Human Fab-kappa Kinetics Biotin Conjugate (Thermo Fisher Scientific) was immobilized. An antibody of interest was captured onto this chip, and each FcγR diluted with the running buffer was allowed to interact with it. The chip was regenerated using 10 mM Glycine-HCl (pH 1.5), and repeatedly used to capture antibodies and perform measurement. The dissociation constants KD (mol/L) of each antibody for FcγRs were calculated using Biacore Insight Evaluation Software, with a steady state affinity model for the dissociation constant for FcγRIIb and a 1:1 Langmuir binding model for the dissociation constants for the other FcγRs (Table 48).

[14] = molecular target: T8, human FcγRIa extracellular domain (human, UniProt P12314 16-292); assay: SPR Biacore 8K+, antibody captured, FcγR as analyte, 1:1 Langmuir model;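 further: antibodies captured on a streptavidin chip through a biotinylated anti-human Fab kappa reagent, with FcγR extracellular domains injected in pH 7.4 phosphate buffer at 25 °C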
T8 construct: extracellular domain; also called hFcγR Ia; hFcγRIa
T8 sequence (P12314 16-292): as the sequence (P12314 16-292) above

[15] = molecular target: T9, human FcγRIIIa V extracellular domain (human, UniProt P08637 17-208); assay: as above
T9 construct: extracellular domain; also called hFcγR IIIa V
T9 sequence (P08637 17-208 F176V limits assumed): as the sequence (P08637 17-208 F176V) above

[16] = molecular target: T10, human FcγRIIa R extracellular domain (human, UniProt P12318 34-217); assay: as above
T10 construct: extracellular domain; also called hFcγR IIa R
T10 sequence (looked up): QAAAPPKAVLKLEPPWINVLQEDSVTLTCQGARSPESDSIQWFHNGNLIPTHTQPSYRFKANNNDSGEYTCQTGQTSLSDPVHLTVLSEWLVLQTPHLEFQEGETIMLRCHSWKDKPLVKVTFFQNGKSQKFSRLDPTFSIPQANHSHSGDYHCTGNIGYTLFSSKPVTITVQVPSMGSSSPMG

[17] = molecular target: T11, human FcγRIIIa F extracellular domain (human, UniProt P08637 17-208); assay: as above
T11 construct: extracellular domain; also called hFcγR IIIa F
T11 sequence (P08637 17-208): as the sequence (P08637 17-208 F176V) above, with V160F counted along it

[18] = molecular target: T12, human FcγRIIa H extracellular domain (human, UniProt P12318 34-217); assay: as above
T12 construct: extracellular domain; also called hFcγR IIa H
T12 sequence (looked up): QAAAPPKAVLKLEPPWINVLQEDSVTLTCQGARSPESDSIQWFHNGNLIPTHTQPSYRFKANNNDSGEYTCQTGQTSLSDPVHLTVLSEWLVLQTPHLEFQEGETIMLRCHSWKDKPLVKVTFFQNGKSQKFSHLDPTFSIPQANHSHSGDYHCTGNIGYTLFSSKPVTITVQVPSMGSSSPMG

[19] = molecular target: T8, human FcγRIa extracellular domain; assay: SPR Biacore 8K+; KD of G1d divided by KD of this antibody;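 further: antibodies captured on an anti-Fab-kappa streptavidin chip, soluble FcγR ectodomains flowed over, KD by steady-state fit for FcγRIIb and Langmuir kinetic model for the other receptors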
Protocol: as §1

[20] = molecular target: T9, human FcγRIIIa V extracellular domain; assay: as above
Protocol: as §1

[21] = molecular target: T7, human FcγRIIb extracellular domain; assay: as above
Protocol: as §1

[22] = molecular target: T10, human FcγRIIa R extracellular domain; assay: as above
Protocol: as §1

[23] = molecular target: T11, human FcγRIIIa F extracellular domain; assay: as above
Protocol: as §1

[24] = molecular target: T12, human FcγRIIa H extracellular domain; assay: as above
Protocol: as §1

[25] = molecular target: T9, human FcγRIIIa V extracellular domain; assay: SPR Biacore 8K+; KD for FcγRIIb divided by KD for this FcγR;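 further: antibodies captured on an anti-human Fab kappa SA chip with soluble human FcγR ectodomains flowed over, FcγRIIb KD from steady-state fit, other FcγR KD from Langmuir model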
[26] = molecular target: T10, human FcγRIIa R extracellular domain; assay: as above
[27] = molecular target: T11, human FcγRIIIa F extracellular domain; assay: as above
[28] = molecular target: T12, human FcγRIIa H extracellular domain; assay: as above

B1: 04H1637-Kn462/04L1610-lam1//04H1637-Hl441/04L1610-lam1 (antibody, human IgG1, lambda)
heavy 1: QVQLVESGGGLVKPGGSLRLSCAASGFTFSSKTMNWVRQAPGKGLEWVSSISTQSHYIYYAESVRGRFTISRDNAKNSLYLQMNSLRAEDTAVYYCARYGKREDMLWVFDYWGQGTLVTVSSASTKGPSVFPLAPSSKSTSGGTAALGCLVKDYFPEPVTVSWNSGALTSGVHTFPAVLQSSGLYSLSSVVTVPSSSLGTQTYICNVNHKPSNTKVDKKVEPKSCDKTHTCPPCPAPEFQWGPMVFLFPPKPKDVLMISRTPEVTCVVVDVSDEEPEVKFNWYVDGVEVHNAKTKPREEQYNATYRVVSVLPVLHQDWLNGKEYKCKVSNDALPAPIEKTISKAKGQPREPQVCTLPPSRDELTKNQVSLWCLVKGFYPSDIAVEWESNGQPENNYKTTPPVLDSDGSFFLYSKLTVDKSRWQQGNVFSCSVMHEALHNHYTQKSLSLSP
heavy 2: QVQLVESGGGLVKPGGSLRLSCAASGFTFSSKTMNWVRQAPGKGLEWVSSISTQSHYIYYAESVRGRFTISRDNAKNSLYLQMNSLRAEDTAVYYCARYGKREDMLWVFDYWGQGTLVTVSSASTKGPSVFPLAPSSKSTSGGTAALGCLVKDYFPEPVTVSWNSGALTSGVHTFPAVLQSSGLYSLSSVVTVPSSSLGTQTYICNVNHKPSNTKVDKKVEPKSCDKTHTCPPCPAPELLAGPSVFLFPPKPKDVLMISRTPEVTCVVVDVSHEEPEVKFNWYVDGVEVHNAKTKPREEQYNATYRVVSVLPVLHQDWLNGKEYKCKVSNDALPAPIEETISKAKGQPREPQVYTLPPSRCELTKNQVSLSCAVKGFYPSDIAVEWESNGQPENNYKTTPPVLDSDGSFFLVSKLTVDKSRWQQGNVFSCSVMHEALHNHYTQKSLSLSP
light: QSALTQPPSASGSPGQSVTISCEGPSTGVGDYNWVHWYQQHPGKAPKLMIYFTSKKPSGVPDRFSGSKSGNTASLTVSGLQAEDEADYYCQTYAAPLGPMFGGGTKLTVLGQPKAAPSVTLFPPSSEELQANKATLVCLISDFYPGAVTVAWKADSSPVKAGVETTTPSKQSNNKYAASSYLSLTPEQWKSHRSYSCQVTHEGSTVEKTVAPTECS
notes: Heterodimerized antibody; also called 04H1637-Kn462/04L1610-lam1//04H1637-H1441/04L1610-lam1
B1 was tested, and the Relative binding amount [1] was 1.6, the Binding amount [2] was 0.013 and the Kd [3] was 5.2 nM. The Kd [4] was 0.15 nM, the Kd [5] was 70 nM and the Kd [6] was 17 nM. For the same binder, the Kd [7] was 220 nM, the “Relative value to KD between G1m and hFcγRs” value [8] was 45.8 and the “Relative value to KD between G1m and hFcγRs” value [9] was 0.3. The “Relative value to KD between G1m and hFcγRs” value [10] was 20.9, the “Relative value to KD between G1m and hFcγRs” value [11] was 79.5 and the “Relative value to KD between G1m and hFcγRs” value [12] was 9.2.

B2: H240-Kn032/L73-k0//H240-Hl032/L73-k0 (antibody)
heavy 1: QDQLVQSGAEVKKPGASVKVSCKASGFNIKDTYIQWVRQAPGQGLEWMGRIDPLRKQTKYREKFEGRVTITADTSTNTAYMELSSLRSEDTAVYYCVRSGREFDYWGQGTLVTVSSASTKGPSVFPLAPSSKSTSGGTAALGCLVKDYFPEPVTVSWNSGALTSGVHTFPAVLQSSGLYSLSSVVTVPSSSLGTQTYICNVNHKPSNTKVDKKVEPKSCDKTHTCPPCPAPELLGGPDVFLFPPKPKDTLMISRTPEVTCVVVDVSHEDPEVKFNWYVDGVEVHNAKTKPREEQYNSTYRVVSVLTVLHQDWLNGKEYKCKVSNKALPLPEEKTISKAKGQPREPQVCTLPPSRDELTKNQVSLWCLVKGFYPSDIAVEWESNGQPENNYKTTPPVLDSDGSFFLYSKLTVDKSRWQQGNVFSCSVMHEALHNHYTQKSLSLSP
heavy 2: QDQLVQSGAEVKKPGASVKVSCKASGFNIKDTYIQWVRQAPGQGLEWMGRIDPLRKQTKYREKFEGRVTITADTSTNTAYMELSSLRSEDTAVYYCVRSGREFDYWGQGTLVTVSSASTKGPSVFPLAPSSKSTSGGTAALGCLVKDYFPEPVTVSWNSGALTSGVHTFPAVLQSSGLYSLSSVVTVPSSSLGTQTYICNVNHKPSNTKVDKKVEPKSCDKTHTCPPCPAPELLGGPDVFLFPPKPKDTLMISRTPEVTCVVVDVSHEDPEVKFNWYVDGVEVHNAKTKPREEQYNSTYRVVSVLTVLHQDWLNGKEYKCKVSNKALPLPEEKTISKAKGQPREPQVYTLPPSRCELTKNQVSLSCAVKGFYPSDIAVEWESNGQPENNYKTTPPVLDSDGSFFLVSKLTVDKSRWQQGNVFSCSVMHEALHNHYTQKSLSLSP
light: DIQMTQSPSSLSASVGDRVTITCRASQDIHKYIAWYQQKPGQAPRLLIQYTSTLQPGVPSRFSGSGSGTDYTFTISSLQPEDIATYYCLQYEQLRTFGGGTKVEIKRTVAAPSVFIFPPSDEQLKSGTASVVCLLNNFYPREAKVQWKVDNALQSGNSQESVTEQDSKDSTYSLSSTLTLSKADYEKHKVYACEVTHQGLSSPVTKSFNRGEC
notes: also called EGL-SDALIE; SDALIE
For B2, the Kd [13] was 2590 nM, the Kd [14] was 0.00166 nM and the Kd [15] was 9.73 nM. It also gave a Kd [16] of 935 nM, a Kd [17] of 26.2 nM and a Kd [18] of 1180 nM. For the same binder, the “Relative value to KD between G1d and hFcgRs” value [19] was 54.3, the “Relative value to KD between G1d and hFcgRs” value [20] was 36.8 and the “Relative value to KD between G1d and hFcgRs” value [21] was 3.9. For the same binder, the “Relative value to KD between G1d and hFcgRs” value [22] was 1.8, the “Relative value to KD between G1d and hFcgRs” value [23] was 113 and the “Relative value to KD between G1d and hFcgRs” value [24] was 1. The “A/I ratio (KD for FcγRIIb divided by KD for each FcγR)” value [25] was 266, the “A/I ratio (KD for FcγRIIb divided by KD for each FcγR)” value [26] was 2.8 and the “A/I ratio (KD for FcγRIIb divided by KD for each FcγR)” value [27] was 98.7. The “A/I ratio (KD for FcγRIIb divided by KD for each FcγR)” value [28] was 2.2.
